Reference: paper PMC6195595 (2018)

How the values were obtained:
Assay in all cases: ITC
[1] = biological target: Kj12B-CDDshort R1565E peptide (Xenorhabdus stockiae KJ12.1, R1565E (stands in the printed letters))
[2] = biological target: Kj12B-^CDD_(short) peptide G1566A (printed as G1565 replaced with alanine) (Xenorhabdus stockiae KJ12.1)
[3] = biological target: Kj12B-^CDD_(short) peptide L1564A (Xenorhabdus stockiae KJ12.1, L1564A (stands in the printed letters))
[4] = biological target: Kj12A-^CDD peptide (C-terminal docking domain of Kj12A) (Xenorhabdus stockiae KJ12.1)
[5] = biological target: T1, Kj12C-^NDD Q26K, E28A (modified Kj12C-^NDD) (Xenorhabdus stockiae KJ12.1)
T1 chain: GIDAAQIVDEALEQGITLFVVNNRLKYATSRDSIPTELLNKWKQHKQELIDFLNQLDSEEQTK

B1: Kj12C-^NDD (N-terminal docking domain of Kj12C) (domain or fragment)
chain: GIDAAQIVDEALEQGITLFVVNNRLQYETSRDSIPTELLNKWKQHKQELIDFLNQLDSEEQTK
[1]
  Kd: > 100 µM
[2]
  Kd: > 100 µM
[3]
  Kd: > 100 µM

B2: Kj12A-^NDD (N-terminal docking domain of Kj12A) (domain or fragment)
chain: MKNAAQIVDEALNQGITLFVADNRLQYETSRDNIPEELLNEWKYYRQDLIDFLQQLDAKEETQ
[4]
  Kd: > 100 µM

B3: Kj12B-^NDD (N-terminal docking domain of Kj12B) (domain or fragment)
chain: MKNAAKIVNEALNQGITLFVSDNKLKYKTNRDSIPSELLEEWKQHKQELIDFLTQLESEEES
[4]
  Kd: > 100 µM

B4: Kj12B-^CDD peptide (C-terminal docking domain of Kj12B) (peptide)
peptide: LLKEKRKHFQAEQNSSQEYLRGEI
modifications: Limits taken from PDB 6EWU (isolated NDD). Residue 1 is Gly as in the entity, possibly a SUMO-cleavage/cloning replacement of the native Met. In vivo, the variant was in full-length Kj12C.
[5]
  Kd: 80 µM
